Experimental findings from PMC5397608 (Journal of Molecular Biology, 2017) are described below.

Changes are numbered by the printed parent chain. Names may count otherwise.

This assay has as its target T1, recombinant human Vascular Endothelial Growth Factor a (Homo sapiens, UniProt P15692-4, fluorescently labeled with Alexa-647).
T1 construct: human VEGFa, UniProt ID P15692, aa 27-191 as printed; the isoform is my reading of the limits 27-191; also called rhVEGFa; recombinant human VEGFa; source: recombinant
The assay is described as follows: MST; Alexa-647-labelled rhVEGFa constant at 1 nM in solution, mAb2 WT or variants in varying concentrations; 295 K; 25 mM sodium citrate pH 6.0, 125 mM NaCl, 0.05% Tween 20; triplicates; NanoTemper Monolith NT.115. To be noted: both partners purified.

As usually defined, the Kd is a measure of binding affinity in units of concentration.

T1 sequence (P15692 other isoform, or with tags, fused parts or gaps): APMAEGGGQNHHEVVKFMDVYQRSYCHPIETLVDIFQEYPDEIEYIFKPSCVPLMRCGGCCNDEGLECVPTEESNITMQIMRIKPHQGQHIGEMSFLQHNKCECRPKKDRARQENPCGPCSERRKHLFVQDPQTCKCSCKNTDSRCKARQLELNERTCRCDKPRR

B1: mAb2_SL50K (antibody, V domains shown)
VH: EVQLVESGGGLVQPGGSLRLSCAASGFTISDYWIHWVRQAPGKGLEWVAGITPAGGYTYYADSVKGRFTISADTSKNTAYLQMNSLRAEDTAVYYCARFVFFLPYAMDYWGQGTLVTVSS
VL: DIQMTQSPSSLSASVGDRVTITCRASQDVSTAVAWYQQKPGKAPKLLIYKASFLYSGVPSRFSGSGSGTDFTLTISSLQPEDFATYYCQQSYTTPPTFGQGTKVEIK
notes: as the heavy chain variable region of m1 (PDB 2FJF); constant regions of an IgG1 isotype, already in the expression vector; as the light chain variable region of m1 (PDB 2FJF), with the stated change; light chain constant region from the expression vector; IgG1; also called S50K in the light chain; source: CHO K1, transiently transfected, purified (protein A)
As to B1, the Kd was 8.3 ± 1.4 nM.

B2: mAb2_FH101P (antibody, V domains shown)
VH: B1 VH with F101P
VL: B1 VL with K50S
notes: as the heavy chain variable region of m1 (PDB 2FJF), with the stated change; constant regions of an IgG1 isotype, already in the expression vector; as the light chain variable region of m1 (PDB 2FJF); light chain constant region from the expression vector; IgG1; source: CHO K1, transiently transfected, purified (protein A)
B2: the binding result is reported as “no binding”.

B3: mAb2_SL52R_SH21R_SH85R_FH101P (antibody, V domains shown)
VH: B1 VH with S21R, S85R, F101P
VL: B1 VL with K50S, S52R
notes: as the heavy chain variable region of m1 (PDB 2FJF), with the stated changes; constant regions of an IgG1 isotype, already in the expression vector; as the light chain variable region of m1 (PDB 2FJF), with the stated change; light chain constant region from the expression vector; IgG1; also called mAb2 FH101P SL52R SH21R SH85R; source: CHO K1, transiently transfected, purified (protein A)
Take B3: the binding result is “no binding”.

B4: mAb2_SL52R_FH101P (antibody, V domains shown)
VH: B1 VH with F101P
VL: B1 VL with K50S, S52R
notes: as the heavy chain variable region of m1 (PDB 2FJF), with the stated change; constant regions of an IgG1 isotype, already in the expression vector; as the light chain variable region of m1 (PDB 2FJF), with the stated change; light chain constant region from the expression vector; IgG1; also called mAb2 FH101P SL52R; source: CHO K1, transiently transfected, purified (protein A)
Regarding B4, the binding result is given as “no binding”.

B5: mAb2_SL50K_SH21R_SH85R_FH101P (antibody, V domains shown)
VH: B1 VH with S21R, S85R, F101P
VL: B1 VL
notes: as the heavy chain variable region of m1 (PDB 2FJF), with the stated changes; constant regions of an IgG1 isotype, already in the expression vector; as the light chain variable region of m1 (PDB 2FJF), with the stated change; light chain constant region from the expression vector; IgG1; also called mAb2 FH101P SL50K SH21R SH85R; source: CHO K1, transiently transfected, purified (protein A)
As for B5, the binding result is “no binding”.

B6: mAb2_SL50K_FH101P (antibody, V domains shown)
VH: B1 VH with F101P
VL: B1 VL
notes: as the heavy chain variable region of m1 (PDB 2FJF), with the stated change; constant regions of an IgG1 isotype, already in the expression vector; as the light chain variable region of m1 (PDB 2FJF), with the stated change; light chain constant region from the expression vector; IgG1; also called mAb2 FH101P SL50K; variant 8; source: CHO K1, transiently transfected, purified (protein A)
As to B6, the binding result is “no binding”.

B7: mAb2_VH100R (antibody, V domains shown)
VH: B1 VH with V100R
VL: B1 VL with K50S
notes: as for B2
For B7, the binding result is recorded as “no binding”.

B8: mAb2_SL50K_SH21R_SH85R (antibody, V domains shown)
VH: B1 VH with S21R, S85R
VL: B1 VL
notes: as the heavy chain variable region of m1 (PDB 2FJF), with the stated changes; constant regions of an IgG1 isotype, already in the expression vector; as the light chain variable region of m1 (PDB 2FJF), with the stated change; light chain constant region from the expression vector; IgG1; also called Variant 7; source: CHO K1, transiently transfected, purified (protein A)
With B8, the Kd is 57.1 ± 6.2 nM.

B9: mAb2_SL50D (antibody, V domains shown)
VH: B1 VH
VL: B1 VL with K50D
notes: as the heavy chain variable region of m1 (PDB 2FJF); constant regions of an IgG1 isotype, already in the expression vector; as the light chain variable region of m1 (PDB 2FJF), with the stated change; light chain constant region from the expression vector; IgG1; source: CHO K1, transiently transfected, purified (protein A)
Take B9: the Kd is 4.4 ± 1.3 nM.
